Consider twelve substances from the supplement of paper PMC5998384.

The test system of series [1] is HeLa Kyoto. In words: solubility in G1/S (NP-40 vs SDS abundance) (log2 ratio); higher = more soluble. Conditions: cell cycle stage: G1/S.
The subject of series [2] is HeLa Kyoto. In words: solubility change mitosis vs G1/S (difference of NP-40 vs SDS log2 ratios) (log2 ratio difference); higher = more soluble in mitosis.
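Throughout, for solubility change mitosis vs G1/S (difference of NP-40 vs SDS log2 ratios): synchronized HeLa Kyoto cells (double thymidine block for G1/S, nocodazole release for mitosis), protein amounts in NP-40 versus SDS lysates quantified by mass spectrometry, three biological replicates.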
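Throughout, for solubility in G1/S (NP-40 vs SDS abundance): HeLa Kyoto cells arrested at G1/S by double thymidine block, proteins quantified by TMT10plex mass spectrometry in mild NP-40 versus SDS extracts, three biological replicates.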

As for “MKGGNADSWQREKLASMESPEEPGASMDENYFVNYTFKDRSHSGRVAQGIMKLCLEEELFADVTISVEGREFQLHRLVLSAQSCFFRSMFTSNLKEAHNRVIVLQDVSESVFQLLVDYIYHGTVKLRAEELQEIYEVSDMYQLTSLFEECSRFLARTVQVGNCLQVMWLADRHSDPELYTAAKHCAKTHLAQLQNTEEFLHLPHRLLTDIISDGVPCSQNPTEAIEAWINFNKEEREAFAESLRTSLKEIGENVHIYLIGKESSRTHSLAVSLHCAEDDSISVSGQNSLCHQITAACKHGGDLYVVGGSIPRRMWKCNNATVDWEWCAPLPRDRLQHTLVSVPGKDAIYSLGGKTLQDTLSNAVIYYRVGDNVWTETTQLEVAVSGAAGANLNGIIYLLGGEENDLDFFTKPSRLIQCFDTETDKCHVKPYVLPFAGRMHAAVHKDLVFIVAEGDSLVCYNPLLDSFTRLCLPEAWSSAPSLWKIASCNGSIYVFRDRYKKGDANTYKLDPATSAVTVTRGIKVLLTNLQFVLA [KBTBD4]”, the “solubility in G1/S (log2)” value in the series on HeLa Kyoto [1] was -0.0904. Moreover, in the series on HeLa Kyoto [2], the “solubility change mitosis (log2)” value is -0.161.

Regarding “MAKSPENSTLEEILGQYQRSLREHASRSIHQLTCALKEGDVTIGEDAPNLSFSTSVGNEDARTAWPELQQSHAVNQLKDLLRQQADKESEVSPSRRRKMSPLRSLEHEETNMPTMHDLVHTINDQSQYIHHLEAEVKFCKEELSGMKNKIQVVVLENEGLQQQLKSQRQEETLREQTLLDASGNMHNSWITTGEDSGVGETSKRPFSHDNADFGKAASAGEQLELEKLKLTYEEKCEIEESQLKFLRNDLAEYQRTCEDLKEQLKHKEFLLAANTCNRVGGLCLKCAQHEAVLSQTHTNVHMQTIERLVKERDDLMSALVSVRSSLADTQQREASAYEQVKQVLQISEEANFEKTKALIQCDQLRKELERQAERLEKELASQQEKRAIEKDMMKKEITKEREYMGSKMLILSQNIAQLEAQVEKVTKEKISAINQLEEIQSQLASREMDVTKVCGEMRYQLNKTNMEKDEAEKEHREFRAKTNRDLEIKDQEIEKLRIELDESKQHLEQEQQKAALAREECLRLTELLGESEHQLHLTRQEKDSIQQSFSKEAKAQALQAQQREQELTQKIQQMEAQHDKTENEQYLLLTSQNTFLTKLKEECCTLAKKLEQISQKTRSEIAQLSQEKRYTYDKLGKLQRRNEELEEQCVQHGRVHETMKQRLRQLDKHSQATAQQLVQLLSKQNQLLLERQSLSEEVDRLRTQLPSMPQSDC [SDCCAG8]”, the “solubility in G1/S (log2)” value with HeLa Kyoto [1] worked out at 0.52. Moreover, in the series on HeLa Kyoto [2], the “solubility change mitosis (log2)” value came to 0.0872.

Consider “MESKGASSCRLLFCLLISATVFRPGLGWYTVNSAYGDTIIIPCRLDVPQNLMFGKWKYEKPDGSPVFIAFRSSTKKSVQYDDVPEYKDRLNLSENYTLSISNARISDEKRFVCMLVTEDNVFEAPTIVKVFKQPSKPEIVSKALFLETEQLKKLGDCISEDSYPDGNITWYRNGKVLHPLEGAVVIIFKKEMDPVTQLYTMTSTLEYKTTKADIQMPFTCSVTYYGPSGQKTIHSEQAVFDIYYPTEQVTIQVLPPKNAIKEGDNITLKCLGNGNPPPEEFLFYLPGQPEGIRSSNTYTLTDVRRNATGDYKCSLIDKKSMIASTAITVHYLDLSLNPSGEVTRQIGDALPVSCTISASRNATVVWMKDNIRLRSSPSFSSLHYQDAGNYVCETALQEVEGLKKRESLTLIVEGKPQIKMTKKTDPSGLSKTIICHVEGFPKPAIQWTITGSGSVINQTEESPYINGRYYSKIIISPEENVTLTCTAENQLERTVNSLNVSAISIPEHDEADEISDENREKVNDQAKLIVGIVVGLLLAALVAGVVYWLYMKKSKTASKHVNKDLGNMEENKKLEENNHKTEA [ALCAM]”, for which the “solubility in G1/S (log2)” value with HeLa Kyoto [1] worked out at 0.38. Moreover, in the series with HeLa Kyoto [2], the “solubility change mitosis (log2)” value was -0.0197.

Consider “MAGPGSTGGQIGAAALAGGARSKVAPSVDFDHSCSDSVEYLTLNFGPFETVHRWRRLPPCDEFVGARRSKHTVVAYKDAIYVFGGDNGKTMLNDLLRFDVKDCSWCRAFTTGTPPAPRYHHSAVVYGSSMFVFGGYTGDIYSNSNLKNKNDLFEYKFATGQWTEWKIEGRLPVARSAHGATVYSDKLWIFAGYDGNARLNDMWTIGLQDRELTCWEEVAQSGEIPPSCCNFPVAVCRDKMFVFSGQSGAKITNNLFQFEFKDKTWTRIPTEHLLRGSPPPPQRRYGHTMVAFDRHLYVFGGAADNTLPNELHCYDVDFQTWEVVQPSSDSEVGGAEVPERACASEEVPTLTYEERVGFKKSRDVFGLDFGTTSAKQPTQPASELPSGRLFHAAAVISDAMYIFGGTVDNNIRSGEMYRFQFSCYPKCTLHEDYGRLWESRQFCDVEFVLGEKEECVQGHVAIVTARSRWLRRKITQARERLAQKLEQEAAPVPREAPGVAAGGARPPLLHVAIREAEARPFEVLMQFLYTDKIKYPRKGHVEDVLLIMDVYKLALSFQLCRLEQLCRQYIEASVDLQNVLVVCESAARLQLSQLKEHCLNFVVKESHFNQVIMMKEFERLSSPLIVEIVRRKQQPPPRTPLDQPVDIGTSLIQDMKAYLEGAGAEFCDITLLLDGHPRPAHKAILAARSSYFEAMFRSFMPEDGQVNISIGEMVPSRQAFESMLRYIYYGEVNMPPEDSLYLFAAPYYYGFYNNRLQAYCKQNLEMNVTVQNVLQILEAADKTQALDMKRHCLHIIVHQFTKVSKLPTLRSLSQQLLLDIIDSLASHISDKQCAELGADI [LZTR1]”, for which, in the series on HeLa Kyoto [1], the “solubility in G1/S (log2)” value was -0.115. Besides, in the series on HeLa Kyoto [2], the “solubility change mitosis (log2)” value is -0.0816.

Consider “MKALIVLGLVLLSVTVQGKVFERCELARTLKRLGMDGYRGISLANWMCLAKWESGYNTRATNYNAGDRSTDYGIFQINSRYWCNDGKTPGAVNACHLSCSALLQDNIADAVACAKRVVRDPQGIRAWVAWRNRCQNRDVRQYVQGCGV [LYZ]”, for which the “solubility in G1/S (log2)” value in the series on HeLa Kyoto [1] is -1.78. The “solubility change mitosis (log2)” value in the series on HeLa Kyoto [2] came out at 2.19.

Regarding “MAAAAASGAGGAAGAGTGGAGPAGRLLPPPAPGSPAAPAAVSPAAGQPRPPAPASRGPMPARIGYYEIDRTIGKGNFAVVKRATHLVTKAKVAIKIIDKTQLDEENLKKIFREVQIMKMLCHPHIIRLYQVMETERMIYLVTEYASGGEIFDHLVAHGRMAEKEARRKFKQIVTAVYFCHCRNIVHRDLKAENLLLDANLNIKIADFGFSNLFTPGQLLKTWCGSPPYAAPELFEGKEYDGPKVDIWSLGVVLYVLVCGALPFDGSTLQNLRARVLSGKFRIPFFMSTECEHLIRHMLVLDPNKRLSMEQICKHKWMKLGDADPNFDRLIAECQQLKEERQVDPLNEDVLLAMEDMGLDKEQTLQSLRSDAYDHYSAIYSLLCDRHKRHKTLRLGALPSMPRALAFQAPVNIQAEQAGTAMNISVPQVQLINPENQIVEPDGTLNLDSDEGEEPSPEALVRYLSMRRHTVGVADPRTEVMEDLQKLLPGFPGVNPQAPFLQVAPNVNFMHNLLPMQNLQPTGQLEYKEQSLLQPPTLQLLNGMGPLGRRASDGGANIQLHAQQLLKRPRGPSPLVTMTPAVPAVTPVDEESSDGEPDQEAVQSSTYKDSNTLHLPTERFSPVRRFSDGAASIQAFKAHLEKMGNNSSIKQLQQECEQLQKMYGGQIDERTLEKTQQQHMLYQQEQHHQILQQQIQDSICPPQPSPPLQAACENQPALLTHQLQRLRIQPSSPPPNHPNNHLFRQPSNSPPPMSSAMIQPHGAASSSQFQGLPSRSAIFQQQPENCSSPPNVALTCLGMQQPAQSQQVTIQVQEPVDMLSNMPGTAAGSSGRGISISPSAGQMQMQHRTNLMATLSYGHRPLSKQLSADSAEAHSLNVNRFSPANYDQAHLHPHLFSDQSRGSPSSYSPSTGVGFSPTQALKVPPLDQFPTFPPSAHQQPPHYTTSALQQALLSPTPPDYTRHQQVPHILQGLLSPRHSLTGHSDIRLPPTEFAQLIKRQQQQRQQQQQQQQQQEYQELFRHMNQGDAGSLAPSLGGQSMTERQALSYQNADSYHHHTSPQHLLQIRAQECVSQASSPTPPHGYAHQPALMHSESMEEDCSCEGAKDGFQDSKSSSTLTKGCHDSPLLLSTGGPGDPESLLGTVSHAQELGIHPYGHQPTAAFSKNKVPSREPVIGNCMDRSSPGQAVELPDHNGLGYPARPSVHEHHRPRALQRHHTIQNSDDAYVQLDNLPGMSLVAGKALSSARMSDAVLSQSSLMGSQQFQDGENEECGASLGGHEHPDLSDGSQHLNSSCYPSTCITDILLSYKHPEVSFSMEQAGV [SIK3]”, in the series with HeLa Kyoto [1], the “solubility in G1/S (log2)” value is -0.387. Moreover, the “solubility change mitosis (log2)” value in the series with HeLa Kyoto [2] was determined as 0.04.

As for “MVAMAAGPSGCLVPAFGLRLLLATVLQAVSAFGAEFSSEACRELGFSSNLLCSSCDLLGQFNLLQLDPDCRGCCQEEAQFETKKLYAGAILEVCGUKLGRFPQVQAFVRSDKPKLFRGLQIKYVRGSDPVLKLLDDNGNIAEELSILKWNTDSVEEFLSEKLERI [SEP15]”, the “solubility in G1/S (log2)” value with HeLa Kyoto [1] was determined as 0.305. Besides, the “solubility change mitosis (log2)” value in the series on HeLa Kyoto [2] is -0.028.

As to “MDHTDNELQGTNSSGSLGGLDVRRRIPIKLISKQANKAKPAPRTQRTINRMPAKAPPGDEEGFDYNEEERYDCKGGELFANQRRFPGHLFWDFQINILGEKDDTPVHFCDKCGLPIKIYGRMIPCKHVFCYDCAILHEKKGDKMCPGCSDPVQRIEQCTRGSLFMCSIVQGCKRTYLSQRDLQAHINHRHMRAGKPVTRASLENVHPPIAPPPTEIPERFIMPPDKHHMSHIPPKQHIMMPPPPLQHVPHEHYNQPHEDIRAPPAELSMAPPPPRSVSQETFRISTRKHSNLITVPIQDDSNSGAREPPPPAPAPAHHHPEYQGQPVVSHPHHIMPPQQHYAPPPPPPPPISHPMPHPPQAAGTPHLVYSQAPPPPMTSAPPPITPPPGHIIAQMPPYMNHPPPGPPPPQHGGPPVTAPPPHHYNPNSLPQFTEDQGTLSPPFTQPGGMSPGIWPAPRGPPPPPRLQGPPSQTPLPGPHHPDQTRYRPYYQ [CBLL1]”, the “solubility in G1/S (log2)” value with HeLa Kyoto [1] came to 0.175. For the same substance, the “solubility change mitosis (log2)” value with HeLa Kyoto [2] is -0.286.

In the case of NSA2, the “solubility in G1/S (log2)” value with HeLa Kyoto [1] is -2.43. In the series with HeLa Kyoto [2], the “solubility change mitosis (log2)” value worked out at 1.41.

With “MRDRLPDLTACRKNDDGDTVVVVEKDHFMDDFFHQVEEIRNSIDKITQYVEEVKKNHSIILSAPNPEGKIKEELEDLNKEIKKTANKIRAKLKAIEQSFDQDESGNRTSVDLRIRRTQHSVLSRKFVEAMAEYNEAQTLFRERSKGRIQRQLEITGRTTTDDELEEMLESGKPSIFTSDIISDSQITRQALNEIESRHKDIMKLETSIRELHEMFMDMAMFVETQGEMINNIERNVMNATDYVEHAKEETKKAIKYQSKARRKKWIIIAVSVVLVAIIALIIGLSVGK [STX2]”, the “solubility in G1/S (log2)” value in the series with HeLa Kyoto [1] was 0.137. Also, the “solubility change mitosis (log2)” value with HeLa Kyoto [2] is 0.0333.

Turning to “MVVSKMNKDAQMRAAINQKLIETGERERLKELLRAKLIECGWKDQLKAHCKEVIKEKGLEHVTVDDLVAEITPKGRALVPDSVKKELLQRIRTFLAQHASL [ENY2]”, the “solubility in G1/S (log2)” value in the series with HeLa Kyoto [1] was -0.203. Also, the “solubility change mitosis (log2)” value in the series with HeLa Kyoto [2] amounted to 0.636.

In the case of ARAP3, the “solubility in G1/S (log2)” value in the series with HeLa Kyoto [1] was 0.016. The “solubility change mitosis (log2)” value with HeLa Kyoto [2] was -0.158.
